Reference: the supplement of paper PMC9170038

What follows are sequences tested on K4 kissing-loop RNA reporter (assay: apparent KD of K4 kissing-loop reporter; higher = weaker reporter binding). Details: Eterna round: R107; input ligand: none.
Procedure: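 RNA-MaP round R107: designed RNA switches with theophylline, tryptophan, arginine or FMN aptamers are transcribed on-chip within common flanks. They are titrated with a labelled K4 kissing-loop RNA reporter in RNA-MaP buffer (100 mM Tris pH 7.5, 80 mM KCl, 4 mM MgCl2), without ligand or with the indicated ligand. Median apparent KD per design.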
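Further: bound reporter read as fluorescence of individual clusters on recovered sequencing chips by microscopy, with normalized cluster intensities fitted with a binding model.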

| Sequence | apparent KD of K4 kissing-loop reporter |
| --- | --- |
| GAGAUAGAGGCGGCCGCCACUAGUGAUGUUAGUGAUGUUAGAAAGAGAAUAGAACAGGGAUUAGAUAGGACCGGGCCAGAUGGAG [vvhmullin] | 60.4 nM |
| AAAUAGAUCAGUCACCCAGUGAUGUUGGAAGGAGCGUGCGAAAGCACAGGUAGGUCGCCAGAAUAAAAUUGGCUGAUCAAAAUAA | 212 nM |
| AUUUUCAAUUUAUUAUAUAACUUUUCAGAAGGAGCGUGGAAGUUCACAGGUAGGUCGCUGAAUAUAGGACUAGUGAUGUUAGUUA [JR_Nu_SSArginiA_Sub023] | 279 nM |
| AGGCCGAGCCAAGGAUAUUGUCAGAGUGAUGUUCGCCAAUACUCCAGCCGCGCCUCAUCAGCUGAGCAAGAAGGUGGUCCUCUCA [theeternabot_exclusion_KL_FMN_B_47] | 221 nM |
| GAGGUACAGCUGGCCGUCGAAUUGUCCGAUACCAGACACUCUCUAGUCCCUUGGCAGCGGUGGUAAGUGAUGUUUACAGGCGCCG [theeternabot_exclusion_KL_Theo_A_3] | 147 nM |
| CUUGGAAAGACGGCCGCCACUGGCCAGUGAUGUUGGCCCACCAGGUAAGCCAAGAAGCUUGACGUCAGGACCGGGUCCUAGGAAU [Exclusion TRyptophan B GF 23] | 410 nM |
| GCCGUACGCAUGGAUACCAGUCAAGAUCAGUGAUGUUGAUCUUUUAUAGAGCCUUCAUUAGACCCUUGGCAGCCAUGCGUACGGC | 391 nM |
| CGGCGUGCCUUAUCCUCAUCUCUGACUCAACGAGGACCGGUACGGCCGCCACUCGGAAGAGGCAGUGAUGUUGCCUACGCCGGUG [Oronat] | 77.3 nM |
| UGAUACCAGACGGCCGCCACUCCCGUAAGUCAAAGACUUACGAAGAGAGUUGUCCAGUGAUGUUGGAGGACCGGGUCUGGUAUCU [FiskerMod 13 - Jieux - Exclusion - Tryptophan B] | 207 nM |
| GCGCGUCAUGUCAGCGGUGACACUGUCGAUACCAGCGCCGCAAGGCGCCCUUGGCAGCGACGCGCUGGAGUGAUGUUCCAGCGUG [#2 Exclusion - Theophylline A Attempt #14 (HarryS)] | 164 nM |
| AGCGAGUGAUGUUCGCUGAUCAUGUGAAGUUAGGAUAUAUACUUGCAUAGAAGGAACUAUUACAUGACAUUAGAGGCAGUAGUUC [FMN A SS t7b] | 167 nM |
| GCCGUACGCAUGGAUACCAGCUACUAGAGUGAUGUUCUAUGGCCCUGCCAAUGGAGCUGUAGCCCUUGGCAGCCAUGCGUACGGC | 105 nM |
| AUGUAUGAAUUAGGAUAUCGUGAGCCUUGCAUAUAUAUGAUAAAUGGAUAUGUCGUAGUGAUGUUACGAGAAGGAGUGUGGAGUA [KL-XFMN-B4] | 45.5 nM |
| ACGAAGGAUGGAAGGAGCGCUCGUCAGUCCUGCGAGUGAUGUUCGUGGGUAAAUAUUCGCGAGCAGGUAGGUCGCCAUCUUGAGC [Soregeor] | 144 nM |
| AUACGUUUAAGUGAUACCAGACAUGUGAGUGAUGUUUACAAAUAAAUUAAAUUUUUAGCUGUCCCUUGGCAGCACAGUUUAUUUA [JR_ExcTheophyB_Sub002] | 594 nM |
| UCCUGCAAUCUGCCACGAAAGUGGAUUGAUACCAGAGUCGAAAGACUCCCUUGGCAGCGAGUGAUGUUCGACGCAGGUAAAUAAA [MatMod 5 - Jieux - Exclusion - Theophylline A] | 178 nM |
| CAUAGUCACUGUGAUACCAGCCCGACUCUUGGCGUCUGCGGUCAAAGCCCAGUGAUGUUGGGCCCUUGGCAGCAUGGCGGCAACA [Xelexebi] | 132 nM |
| GUGCGCGCGGCGGCCGCCACUCGCAUGAGAGUGAUGUUCUCGGGACUGACGCAAGUCAGUCAUGUGAGGACCGGGCCGGGCUGCG [#2 Same State - Tryptophan B Attempt #12 (HarryS)] | 447 nM |
| AGGGACGAUAGCGAUACCAGAGGUCGCAAAUUCGCGCCGUUUUUUAGGAAGUGAUGUUUUCUCCCUUGGCAGCGCCCUUAGAGUU [theeternabot_exclusion_KL_Theo_B_47] | 945 nM |
| CGCGCGCGCGCGCGCGCGCGCGAAAAUGAUACCAGUAUAUAAGAAUACCCUUGGCAGCAUAAGAAAGAUAUAGUGAUGUUGUAUA [SSTheophA.A] | 279 nM |
| CGGAGUGAUGUUCCGUUAAUUCCUUAGUUACGAGGACCGGUACGGCCGCCACUCGAUUUUAGUUUUAUUUAUUGUUUGGAAAUUU [JR_SSTryptoA_Sub008] | 290 nM |
| UAGUCCUAGUGAUGGUCAUCACGUGGUGGGCGAGGACCGGUACGGCCGCCACUCGACUUUGCAGUGAUGUUGCAAACCGGACAAU [Exclusion - Tryptophan A (Freestyle 19)] | 311 nM |

Same assay, conditions: Eterna round: R107; input ligand: theophylline 20 uM

| Sequence | apparent KD of K4 kissing-loop reporter |
| --- | --- |
| AUGGUGGAUCAGUGAUGUUGGUGGAGUAGGUAGGAUAUGAGUGAUGUUAGAAGGAUCGGAGUGAUGUUCCAGGUGGUUGUGUUGU [KL-SSFMN-A3] | 516 nM |
| GCCGUAGAUUGAAGGAGCGCCUUCUUACCAAGAGUGAUGUUCUUAGGUACCAUGUUCAGUAGGCAGGUAGGUCGCAAUCUACGGC | 647 nM |
| AAGAAUAAUCUUGCAGUGAUGUUGCAAGAUACCAGCAUCGAAAGAUGCCCUUGGCAGCUUGAAACUGCAAGAAUCAAGCUGAAUA [Design1] | 145 nM |
| GGUAGCAUGGCGGCCGCCACUAAGAGAGUGAUGUUCUCUUAGUUUUUUGAUGUGUUAUCAAUUCUUAGGACCGGGCCAUGCUACC | 99.8 nM |
| ACUGAAAGAUCUGAUACCAGACUUUUUGUAUUUAUUAAAACUAGUGAUGUUAGUUUAUCAGUCCCUUGGCAGCAGUUACUACAGA [JR_Nu_ExcTheophyB_Sub024] | 103 nM |
| ACGACGGCAGCUCAGUGAUGUUGGGCAUUACGAGGACCGGUACGGCCGCCACUCGCUGCUUUGAUCCGUGGAUGAACCUCAGCAU [theeternabot_sameState_KL_Trp_A_13] | 734 nM |
| GGGAGCAAAGCUCCCGGAUGCUAUAGUCAGGAGGAUAUCUGGAAACAGAGAAGGCCUAAGCCAGUGAUGUUGGCUAUAAGCAUCC | 629 nM |
| GUAGACAGACUGCAAGCCUAGUCUACAGACUAGGAUAUCAGGAAACUGAGAAGGAGUCUACUUGCAGUGAUGUUGCAAGAAUAAU [[F]''-[K]'-[F]'-[F1]-[F2]-[K1]-[K2]_Design4] | 111 nM |
| UCUAACGUUGAGGCGGCAGCGGGCCCAUCUAAGGAUAUCGGUUUACCGAGAAGGUAGUUGGACGAGAGUGAUGUUCUAUUGAGAG [theeternabot_sameState_KL_FMN_A_18] | 642 nM |
| CAUAGGAAACUAUGUUUCUCUCUUACUGAAGGAGCGCGUGAAAACGCAGGUAGGUCGCAGAUUUUGAGAGUGAUGUUCUCAAUAA [Ex Arginine A K4 18] | 155 nM |
| UGACAUUGCUCAGAUACCAGACUUGAGGAACACCCAAGUGCCAAACGUACAAUAAUAAAAGUCCCUUGGCAGCUGAGCAAUGUCU [TheoBX 14] | 62.8 nM |
| UCUGGAGGAUAUGAUACCAGCAGUGAGAGAGAGGAAGUAUAGUGAUGUUAUAUGAGAGAAUGCCCUUGGCAGCGUGUGUAGUGGG [SSTheophylB.L] | 151 nM |
| ACACGGAGAGGCAUAACGUGCAUCUUCAGCGAGGAUAUCCAUUACAGGAGAAGGCGCUCCGGAGUGAUGUUCCGGCAAAAGAUAC [Quatatte] | 146 nM |
| GCGCGCGUUUUAGAUACCAGCCAGUGAUGUUGGCGAGGAUUCUGGAGCGUAGUGUCAAAUGGCCCUUGGCAGCUAACACGCGGCU [Zabea] | 134 nM |
| GCAACAUUGGUAGGAUAUCAUUCUGAGUGAUGUUCAGGGUUCAGCUAACGAAAGUUAGUUGUACCAUGAGAAGGACUAAUGUUGC [Omei KL FMN B SS A v3] | 1060 nM |
| AAAAUAAGCCAGUGAUGUUGGUAUACAGAUACCAGCGACGAAAGUCGCCCUUGGCAGCUGUGGACGUACAAAAUAAGUACGUCCU | 780 nM |
| UGAUAGCCAGUGAUGUUGGCAUAUACUGAAGGAGCGCGUGAAAACGCAGGUAGGUCGCAGUUCCUUGCCAAUUGAUCGAAAGAUC [#08 K4 Arginine A Exclusion] | 207 nM |

| Sequence | apparent KD of K4 kissing-loop reporter |
| --- | --- |
| GCCGUAGAUGGAAGGAGCGUGAAUGGCCUCUAUCCAAAGUGAUGUUUUGUUGAAGACUGUUCACAGGUAGGUCGCCAUCUACGGC | 135 nM |
| UUCGGAUAAGUCCUUCCGAAGAAGCCGGAAGGAGCGACUCAAUAGUCAGGUAGGUCGCCGGCAAGCGUAGUGAUGUUAUGCUCAC [Arg A SS t6] | 713 nM |
| UUGUUUGGUUGAGAGGUUGGGCGAGAUGAUACCAGUAUAGAAGAGUACCCUUGGCAGCAUAGGAGAGAUAUAGUGAUGUUGUAUG [SSTheophA.T] | 494 nM |
| UUACUGAGUGAUGUUUGGAAAUAUCCUAGGCAGGAUAUGCGGAAACGCAGAAGGGCCACCUUCUAGUGAAGGAAACUUCGCUAUU [Ex FMN A 4] | 397 nM |
| UUUUUCGCGUUUGAUACCAGCAGAGUUGUUCGUGUCUGGAGCGUGAGUGAUGUUCAUGUCUGCCCUUGGCAGCAAACGGGAGAAG [KL-XTheo-B14] | 97.1 nM |
| GAGAUAGAGGCGGCCGCCACUAGUGAUGUUAGUGAUGUUAGAAAGAGAAUAGAACAGGGAUUAGAUAGGACCGGGCCAGAUGGAG [vvhmullin] | 62.2 nM |
| AAAUAGAUCAGUCACCCAGUGAUGUUGGAAGGAGCGUGCGAAAGCACAGGUAGGUCGCCAGAAUAAAAUUGGCUGAUCAAAAUAA | 393 nM |
| AUUUUCAAUUUAUUAUAUAACUUUUCAGAAGGAGCGUGGAAGUUCACAGGUAGGUCGCUGAAUAUAGGACUAGUGAUGUUAGUUA [JR_Nu_SSArginiA_Sub023] | 268 nM |
| AGGCCGAGCCAAGGAUAUUGUCAGAGUGAUGUUCGCCAAUACUCCAGCCGCGCCUCAUCAGCUGAGCAAGAAGGUGGUCCUCUCA [theeternabot_exclusion_KL_FMN_B_47] | 207 nM |
| GAGGUACAGCUGGCCGUCGAAUUGUCCGAUACCAGACACUCUCUAGUCCCUUGGCAGCGGUGGUAAGUGAUGUUUACAGGCGCCG [theeternabot_exclusion_KL_Theo_A_3] | 122 nM |
| CUUGGAAAGACGGCCGCCACUGGCCAGUGAUGUUGGCCCACCAGGUAAGCCAAGAAGCUUGACGUCAGGACCGGGUCCUAGGAAU [Exclusion TRyptophan B GF 23] | 314 nM |
| GCCGUACGCAUGGAUACCAGUCAAGAUCAGUGAUGUUGAUCUUUUAUAGAGCCUUCAUUAGACCCUUGGCAGCCAUGCGUACGGC | 373 nM |
| CGGCGUGCCUUAUCCUCAUCUCUGACUCAACGAGGACCGGUACGGCCGCCACUCGGAAGAGGCAGUGAUGUUGCCUACGCCGGUG [Oronat] | 82.3 nM |
| UGAUACCAGACGGCCGCCACUCCCGUAAGUCAAAGACUUACGAAGAGAGUUGUCCAGUGAUGUUGGAGGACCGGGUCUGGUAUCU [FiskerMod 13 - Jieux - Exclusion - Tryptophan B] | 202 nM |
| GCGCGUCAUGUCAGCGGUGACACUGUCGAUACCAGCGCCGCAAGGCGCCCUUGGCAGCGACGCGCUGGAGUGAUGUUCCAGCGUG [#2 Exclusion - Theophylline A Attempt #14 (HarryS)] | 143 nM |
| AGCGAGUGAUGUUCGCUGAUCAUGUGAAGUUAGGAUAUAUACUUGCAUAGAAGGAACUAUUACAUGACAUUAGAGGCAGUAGUUC [FMN A SS t7b] | 171 nM |
